The text below walks through data of patent publication EP4790144A1 (Peking Union Medical College Hospital, dated 2026).

The target of this assay is T1, 2023-601 project-ABCD1 protein (human, UniProt P33897 650-745).
T1 construct: also called antigen protein ABCD1
T1 sequence: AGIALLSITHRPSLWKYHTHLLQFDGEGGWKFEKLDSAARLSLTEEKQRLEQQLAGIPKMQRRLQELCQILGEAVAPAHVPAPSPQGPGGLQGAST
Put plainly: ELISA, ABCD1 protein coated at 2 ug/mL, HRP goat anti-mouse secondary antibody. Background: In an ELISA, binding on a coated surface is turned into a signal by an enzyme label.

B1: 07PC17 (antibody, V domains shown)
VH: QLQLVQSGPEVKKPGETVKISCKASGYAFTNYGMNWVKQAPGKDLKWMGWINTYTGDPVYGDDFKGRFAFSLDTSASTAYLQINNLKNEDTATYFCVREPIYYGWVDYWGQGTSVTVSS
VL: DIVMTQAAPSVPVTPGESASISCRSSKSLLHRNGNTYLYWFLQRPGQSPQVLIYRMSNLASGVPDRFSGSGSGTAFTLRISRVEAEDVGVYYCMQHLEYPYTFGGGTKLEIK
In the case of B1, the binding result is “binds”.

B2: 07PC28 (antibody, V domains shown)
VH: QIQLVQSGPELKKPGETVKISCKTSGYTFTDFGMNWVKRAPGQDLKWMGWINTYTGATTYGDEFKGRFAFSLETSASTASLQINNLKNEDSATYFCVREPLYYGWVDYWGQGTSVIVSS
VL: DIVMTQVAPSVPVTPGESVSISCRSSKSLLHRNGNTYLYWFLQRPGQSPQVLIYRMSNLASGVPDRFSGSGSGTAFTLRISRVEAEDVGVYYCMQHLEYPYTFGGGTKLEIK
B2: the binding result is “binds”.

B3: 07PC03 (antibody, V domains shown)
VH: QLQLVQSGPEVKKPGETVKISCKASGYAFTNYGMNWVKQAPGKDLKWMGWIKTYTGDSVYGDDFKGRFAFSLDTSASTAYLQINDLKNEDTATYFCVREPIYYGWVDYWGQGTSVTVSS
VL: DIVMTQAAPSVPVTPGESASISCRSSKSLLHRNGNTYLYWFLQRPGQSPQVLIYRMSNLASGVPDRFSGSGSGTAFTLRISRVEAEDVGVYYCMQHLEYPYTFGGGTKLEIK
As for B3, the binding result is “binds”.

B4: 07PC27 (antibody, V domains shown)
VH: QLQLVQSGPELKKPGETVKISCKASGYAFTNYGMNWVKQTPGKGLKWMGWINTYSGETTYGDDFKGRFAFSLETSASTAYLQINSLKNEDTATYFCVREPIYYGWVDYWGQGTSVTVSS
VL: DIVMTQAAPSVPVTPGESVSISCRSSKSLLHRNGNTYLYWFLQRPGQSPQVLIYRMSNLASGVPDRFSGSGSGTAFTLRISRVEAEDVGVYYCMQHLEYPYTFGGGTKLEIK
For B4, the binding result is “binds”.

B5: 07PC08 (antibody, V domains shown)
VH: EVKLEESGGGLVQPGGSMKLSCGASGFTFSDAWMDWVRQSPEKGLEWVAEIRSKAINHATYYAESVKGRFTISRDDSKSSVYLQMNSLRAEDTGIYYCTRRVDWYFDVWGAGTTVTVSS
VL: DILLTQSPAILSVSPGERVSFSCRASQSIGTSIYWYQQRTNGSPRLLIKYASESISGIPSRFSGSGSGTDFTLSINSVESEDIADYYCQQSNSWPLTFGAGTKLELK
For the molecule B5, the binding result is given as “binds”.

B6: 07PC09 (antibody, V domains shown)
VH: IVMLVESGGGLVKPGGSLKLSCVASGFTFSTYAMSWIRQTPEKRLAWVATISSGGSSTYYSDSVKGRFTISRDNAKNTLYLQMSSLRSEDTAMYYCARHGDWDGSLAYWGQGTQVTVSA
VL: DIVMTQSHKLMSTSVGDRVNITCKASQDVNAAVAWYQQQPGQSPKLLFYWASTRHTGVPDRFTGSGSRTDYTLTISGVQAEDLALYYCQQHYSAPRTFGGGTKLEVK
In the case of B6, the binding result is “binds”.

B7: 07TE02 (antibody, V domains shown)
VH: DVKLVESGGGLVKPGGSLKLSCAASGLTFSIYAMSWVRQTPEKRLEWVATISAGDIYPYYSDSVKGRFAISRDNAKNTLYLQMSSLRSEDTAIYYCTSITMAMAYWGQGTLVTVSA
VL: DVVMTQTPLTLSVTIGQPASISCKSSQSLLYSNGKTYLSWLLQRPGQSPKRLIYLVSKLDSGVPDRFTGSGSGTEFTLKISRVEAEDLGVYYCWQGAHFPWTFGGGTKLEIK
Take B7: the binding result is reported as “binds”.

B8: 07TE08 (antibody, V domains shown)
VH: DVKLVESGGGLVKPGGSLKLSCAASGFTFSIYAMSWVRQTPEKRLEWVATISAGDIYPYYSDSVKGRFAISRDNAKNTLFLQMSSLRSEDTAIYYCTSITMAMAYWGQGTLVTVSA
VL: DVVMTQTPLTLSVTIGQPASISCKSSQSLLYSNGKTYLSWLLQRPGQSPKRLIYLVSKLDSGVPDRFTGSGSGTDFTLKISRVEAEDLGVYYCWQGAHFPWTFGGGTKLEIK
As to B8, the binding result was “binds”.

B9: 07TE04 (antibody, V domains shown)
VH: QVQLQQSGAELVKPGASVKLSCKASGYTFTRYYLYWVKQRPGQGLEWIGKINPTNGVADLNEKFKYKATLTVDKSSSTTHMQLSSLTSEDSAVYYCTRVYYKYDGFAYWGQGTLVTVSA
VL: DIVMTQSLKFMSTSVGDRVSIICKASQDVGTAVAWYQQKPAQSPKLLIYWASTRHTGVPDRFTGSGSGTDFTLTISNVQSEDLTDYFCQQYSSYPLTFGGGTKLEIK
For the molecule B9, the binding result was “binds”.
